In IntAct's records for PubMed 19804848:

B1: Syntaxin-binding protein 2 (Homo sapiens), Q15833 (parent)
chain: MAPSGLKAVVGEKILSGVIRSVKKDGEWKVLIMDHPSMRILSSCCKMSDILAEGITIVEDINKRREPIPSLEAIYLLSPTEKSVQALIKDFQGTPTFTYKAAHIFFTDTCPEPLFSELGRSRLAKVVKTLKEIHLAFLPYEAQVFSLDAPHSTYNLYCPFRAEERTRQLEVLAQQIATLCATLQEYPAIRYRKGPEDTAQLAHAVLAKLNAFKADTPSLGEGPEKTRSQLLIMDRAADPVSPLLHELTFQAMAYDLLDIEQDTYRYETTGLSEAREKAVLLDEDDDLWVELRHMHIADVSKKVTELLRTFCESKRLTTDKANIKDLSQILKKMPQYQKELNKYSTHLHLADDCMKHFKGSVEKLCSVEQDLAMGSDAEGEKIKDSMKLIVPVLLDAAVPAYDKIRVLLLYILLRNGVSEENLAKLIQHANVQAHSSLIRNLEQLGGTVTNPGGSGTSSRLEPRERMEPTYQLSRWTPVIKDVMEDAVEDRLDRNLWPFVSDPAPTASSQAAVSARFGHWHKNKAGIEARAGPRLIVYVMGGVAMSEMRAAYEVTRATEGKWEVLIGSSHILTPTRFLDDLKALDKKLEDIALP
partner: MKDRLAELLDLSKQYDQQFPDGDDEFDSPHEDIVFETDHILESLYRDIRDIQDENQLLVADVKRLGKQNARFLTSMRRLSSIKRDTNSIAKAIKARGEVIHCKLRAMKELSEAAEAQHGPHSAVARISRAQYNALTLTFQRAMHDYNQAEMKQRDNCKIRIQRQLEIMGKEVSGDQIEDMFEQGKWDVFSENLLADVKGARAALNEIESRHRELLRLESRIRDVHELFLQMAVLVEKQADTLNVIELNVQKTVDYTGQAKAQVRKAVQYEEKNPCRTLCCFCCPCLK

Variants of: B1
Details: with stx11_human STX11, O75558

Effect of a mutation on the interaction, disrupting interaction strength:
P477L
R405E
R292H
R405W
